In patent US20060051363A1, “Protein inducing cell death of helicobacter pylori” (JAPAN SCIENCE AND TECHNOLOGY AGENCY, priority 2002, published 2006):

T1: subunit 2 of the apoptosis-inducing protein from Helicobacter pylori (amino acids 380-567 of the protein … (Helicobacter pylori strain 26695))
T1 construct: Purified from the membrane fraction of H. pylori strain 26695; this follows from the lengths; also called about 22 kDa band
T1 chain: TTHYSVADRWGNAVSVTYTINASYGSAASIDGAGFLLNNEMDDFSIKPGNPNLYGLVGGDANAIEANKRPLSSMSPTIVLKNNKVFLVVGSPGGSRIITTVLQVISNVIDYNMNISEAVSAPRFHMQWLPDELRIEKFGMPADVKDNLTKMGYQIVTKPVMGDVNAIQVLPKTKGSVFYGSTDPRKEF

B1: subunit 1 of the apoptosis-inducing protein from Helicobacter pylori (amino acids 27-379 of the protein encoded by the HP1118 gamma-glutamyl transferase gene) (enzyme)
chain: ASYPPIKNTKVGLALSSHPLASEIGQKVLEEGGNAIDAAVAIGFALAVVHPAAGNIGGGGFAVIHLANGENVALDFREKAPLKATKNMFLDKQGNVVPKLSEDGYLAAGVPGTVAGMEAMLKKYGTKKLSQLIDPAIKLAENGYAISQRQAETLKEARERFLKYSSSKKYFFKKGHLDYQEGDLFVQKDLAKTLNQIKTLGAKGFYQGQVAELIEKDMKKNGGIITKEDLASYNVKWRKPVVGSYRGYKIISMSPPSSGGTHLIQILNVMENADLSALGYGASKNIHIAAEAMRQAYADRSVYMGDADFVSVPVDKLINKAYAKKIFDTIQPDTVTPSSQIKPGMGQLHEGSN
notes: Purified from the membrane fraction of H. pylori strain 26695; this follows from the lengths; also called about 40 kDa band
B2: protein purified in example 1: Helicobacter pylori protein complex of two subunits (SEQ ID NO: 1 and 2; about 40 kDa and 22 kDa) encoded by the HP1118 gene (protein)
chain 1: B1 chain
chain 2: T1 chain
modifications: Helicobacter Pylori
notes: about 40 kDa and 22 kDa) encoded by the HP1118 gene

How the values were obtained:
[1] = molecular target: T1, subunit 2 of the apoptosis-inducing …; assay: native PAGE under acid condition (single band), then 2D SDS-PAGE (two bands, about 40 kDa and 22 kDa)
[2] = system: human uterine cervix cancer-derived HeLa cell; assay: cytotoxic effect assayed using WST-1 kit in HeLa cells; format: cell-based; conditions: FIG. 7
Method: (§1) In this example, the apoptosis-inducing activity of the protein purified in example 1 was examined in human gastric adenocarcinoma cell line AGS (ATCC CRL 1739), in human gastric carcinoma cell line KATO III (Human Science Research Resources Bank, Cat No. JCRB0611 (ATCC, HTB-103)) and in human uterine cervix cancer-derived HeLa cell (Human Science Research Resources Bank, Cat No. JCRB9004).
(§2) The cytotoxic effect was assayed using WST-1 kit (Roche Diagnotics).

[3] = system: human gastric adenocarcinoma cell line AGS; assay: cytotoxic effect assayed using WST-1 kit in AGS cells; format: cell-based; conditions: FIG. 7
Method: In this example, the apoptosis-inducing activity was measured as the cytotoxic activity in human gastric adenocarcinoma cell line AGS (ATCC CRL 1739) using Quick Cell Proliferation Assay Kit (Cat.BV-K301-10) (BioVision). The cell viability (surviving cell), from which an apoptosis-inducing activity is calculated, is based on the activity of intracellular mitochondrial dehydrogenase activity as a marker enzyme and is measured by the absorbance at 450 nm after 1 hr incubation at 37° C. with the substrate of the enzyme. The absorbance indicates the cell viability. The more cytotoxic, the less the absorbance is according to the mesurement.
as §1, §2

[4] = system: human gastric carcinoma cell line KATO III; assay: cytotoxic effect assayed using WST-1 kit in KATO III cells; format: cell-based; conditions: FIG. 8
Method: as §1, §2

[5] = system: AGS cells; assay: induction of apoptosis in AGS cells (Hoechst 33342 nuclear staining, fluorescence microscopy); format: cell-based, human; conditions: Hoechst 33342 staining, FIG. 9
Excerpt: Also, the induction of apoptosis in AGS cells by the protein was examined: Trypsinized apoptotic and control cells were collected and stained with a fluorescent dye (Hoechst 33342), which stains cellular nuclei. Since the nuclei of apoptotic cells are highly condensed and fragmented, apoptotic cells are easily differentiated from control cells under fluorescence microscopy. Cells were put on a slide glass, the number of apoptotic cells and control cells were counted and the percentage of apoptotic cells in total cells was enumerated. At least total 500 cells were counted for each experiment.

Molecule | binding result [1] | cytotoxic activity [2] | cytotoxic activity [3] | cytotoxic activity [4] | induction of apoptosis (percentage of apoptotic cells in total cells) [5]
B1 | binds | – | – | – | –
B2 | – | has the cytotoxic activity | has the cytotoxic activity | has the cytotoxic activity | mainly ascribed to apoptosis
